From patent US20100113367A1 (IPSEN PHARMA S A S, published 2010)
Numbered stars: 1 amine (or outer) side, 2 acyl side, 3 side chain; on linkers, the order of the positions; unused ones are H or OH. Bridge positions count the residues as written; N and C are the ends. Square brackets hold non-standard residues; d marks the D form. Pipz(1-CH2CO,4-CH2CH2NH) = O=C(CN1CCN(CCN[*:1])CC1)[*:2]; Tyr(3-I) = N[C@@H](Cc1ccc(O)c(I)c1)C(=O)O; Suc = O=C(CCC(=O)[*:2])[*:1]; Nle = CCCC[C@H](N)C(=O)O; rvGly = not defined here; Glut = not defined here; Abu = CC[C@H](N)C(=O)O; Apn = not defined here; AEEA = NCCOCCOCC(=O)O; Ahx = NCCCCCC(=O)O; GABA = NCCCC(=O)O; βAla = NCCC(=O)O

How the values were obtained:
[1] = target: native bombesin/GRP receptor of AR42J rat pancreas cells (rat) (UniProt P52500); test: radioligand displacement, AR42J rat pancreas cell membranes, tracer [125I-Tyr4]bombesin
native bombesin/GRP receptor of AR42J rat pancreas cells (rat), sequence (P52500 whole entry): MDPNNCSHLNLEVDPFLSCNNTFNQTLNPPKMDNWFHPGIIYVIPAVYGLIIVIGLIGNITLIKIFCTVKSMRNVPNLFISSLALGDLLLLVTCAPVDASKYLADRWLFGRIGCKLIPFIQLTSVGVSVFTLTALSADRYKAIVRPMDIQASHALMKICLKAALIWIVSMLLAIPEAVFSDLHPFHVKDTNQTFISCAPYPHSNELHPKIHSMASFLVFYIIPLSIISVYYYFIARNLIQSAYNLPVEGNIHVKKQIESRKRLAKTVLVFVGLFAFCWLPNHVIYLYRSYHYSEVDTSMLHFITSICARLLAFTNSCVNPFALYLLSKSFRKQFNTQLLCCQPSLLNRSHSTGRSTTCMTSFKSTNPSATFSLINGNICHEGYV

[2] = target: human somatostatin receptor subtype hSSTR-5 (human) (UniProt P35346); test: radioligand displacement, CHO-K1 hSSTR-5 membranes, tracer m40
human somatostatin receptor subtype hSSTR-5 (human), sequence (P35346 whole entry): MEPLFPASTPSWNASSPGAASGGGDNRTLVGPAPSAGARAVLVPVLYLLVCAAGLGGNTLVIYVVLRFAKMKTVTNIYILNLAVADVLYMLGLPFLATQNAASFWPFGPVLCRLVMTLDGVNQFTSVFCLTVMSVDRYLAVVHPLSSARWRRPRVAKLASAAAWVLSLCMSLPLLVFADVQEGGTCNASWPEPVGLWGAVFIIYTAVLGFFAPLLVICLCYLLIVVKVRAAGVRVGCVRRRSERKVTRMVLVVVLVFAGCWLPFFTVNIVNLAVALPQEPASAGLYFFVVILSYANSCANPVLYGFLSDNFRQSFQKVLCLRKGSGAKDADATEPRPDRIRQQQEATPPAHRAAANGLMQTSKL

[3] = target: human somatostatin receptor subtype hSSTR-3 (human) (UniProt P32745); test: radioligand displacement, CHO-K1 hSSTR-3 membranes, tracer [125I-Tyr11]SRIF-14
human somatostatin receptor subtype hSSTR-3 (human), sequence (P32745 whole entry): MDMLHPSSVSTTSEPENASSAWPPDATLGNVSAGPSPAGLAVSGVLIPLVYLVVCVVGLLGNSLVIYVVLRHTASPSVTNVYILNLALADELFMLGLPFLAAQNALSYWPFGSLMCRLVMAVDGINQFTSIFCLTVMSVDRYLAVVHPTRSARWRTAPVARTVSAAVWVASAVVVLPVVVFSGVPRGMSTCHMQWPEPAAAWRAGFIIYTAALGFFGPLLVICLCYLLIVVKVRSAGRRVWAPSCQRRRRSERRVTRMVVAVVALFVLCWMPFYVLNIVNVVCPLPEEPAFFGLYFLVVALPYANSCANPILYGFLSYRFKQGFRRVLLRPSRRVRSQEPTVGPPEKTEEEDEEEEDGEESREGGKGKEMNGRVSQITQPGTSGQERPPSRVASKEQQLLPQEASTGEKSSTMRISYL

[4] = target: human somatostatin receptor subtype hSSTR-2 (human) (UniProt P30874); test: radioligand displacement, CHO-K1 hSSTR-2 membranes, tracer m39
human somatostatin receptor subtype hSSTR-2 (human), sequence (P30874 whole entry): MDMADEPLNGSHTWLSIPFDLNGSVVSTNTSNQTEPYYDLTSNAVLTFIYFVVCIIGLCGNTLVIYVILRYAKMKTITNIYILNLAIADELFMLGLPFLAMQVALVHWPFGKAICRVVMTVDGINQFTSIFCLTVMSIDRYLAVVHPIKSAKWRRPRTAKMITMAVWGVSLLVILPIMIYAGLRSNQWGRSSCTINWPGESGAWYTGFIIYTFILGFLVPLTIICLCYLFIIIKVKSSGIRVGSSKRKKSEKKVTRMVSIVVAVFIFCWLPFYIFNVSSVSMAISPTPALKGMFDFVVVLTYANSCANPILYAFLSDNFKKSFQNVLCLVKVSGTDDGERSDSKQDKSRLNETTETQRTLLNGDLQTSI

[5] = target: T1, native bombesin/GRP receptor of AR42J rat pancreas cells (rat, UniProt P52500 1-384); test: radioligand displacement, AR42J rat pancreas cell membranes, tracer [125I-Tyr4]bombesin
T1 construct: whole, on cells; Used as membrane homogenate of AR42J cells; also called bombesin receptor
T1 sequence (P52500 whole entry): as the sequence (P52500 whole entry) above
Method: The homogenates were washed twice by centrifugation (39,000 g/10 minutes) and the final pellets were resuspended in 50 mM Tris-HCl containing 2.5 mM MgCl₂ and 0.1% BSA. For the assay, aliquots of membrane homogenate (0.4 ml) were incubated with 0.05 nM [¹²⁵I-Tyr4]bombesin (2200 Ci/mmol) (New England Nuclear®, Boston, Mass., U.S.A.) with and without 0.05 ml of unlabeled competing test peptides. After a 30 minute incubation period at 4° C., the bound [¹²⁵I-Tyr4]bombesin was separated from the free bombesin by rapid filtration through GF/B filters (Brandel®, Gaithersburg, Md., U.S.A.) which had been previously soaked in 0.3% polyethyleneimine. The filters were then washed three times with 5-ml aliquots of ice-cold 50 mM Tris-HCl. The bound radioactivity trapped on the filters was counted by gamma spectrometry (Wallac LKB®, Gaithersburg, Md., U.S.A.). Specific binding was defined as the total [¹²⁵I-Tyr4]bombesin bound minus that bound in the presence of 1000 nM bombesin (Bachem®, Torrence, Calif., U.S.A>).

B1: Camptothecin-rvGly-Suc-(Doc)4-Aepa-D-Ser-D-Tyr-Gln-Trp-Ala-Val-β-Ala-His-Leu-Nle-NH2 (peptide)
peptide: {Camptothecin-rvGly-Suc-AEEA-AEEA-AEEA-AEEA-Pipz(1-CH2CO,4-CH2CH2NH)}-[dS][dY]QWAV[βAla]HL[Nle]-NH2
modifications: reading uncertain; also: printed as Camptothecin-rvGly-Suc-(Doc)4-Aepa-D-Ser-D-Tyr-Gln-Trp-Ala-Val-β-Ala-His-Leu-Nle-NH2
Ki [1]: 3.96 nM

B2: Camptothecin-rvGly-Glut-(Doc)6-Lys-D-Tyr-D-Tyr-c(Cys-3-(I)Tyr-D-Trp-Lys-Abu-Cys)-Thr-NH2 (peptide)
peptide: {Camptothecin-rvGly-Glut-AEEA-AEEA-AEEA-AEEA-AEEA-AEEA}-K[dY][dY]C[Tyr(3-I)][dW]K[Abu]CT-NH2
modifications: disulfide 4-9; reading uncertain
Ki [2]: 3 nM
Ki [3]: 125 nM
Ki [4]: 0.36 nM

B3: Camptothecin-rvGly-Glut-(Doc)4-Lys-D-Tyr-D-Tyr-c(Cys-3-(I)Tyr-D-Trp-Lys-Abu-Cys)-Thr-NH2 (peptide)
peptide: {Camptothecin-rvGly-Glut-AEEA-AEEA-AEEA-AEEA}-K[dY][dY]C[Tyr(3-I)][dW]K[Abu]CT-NH2
modifications: disulfide 4-9; reading uncertain
Ki [2]: 3.86 nM
Ki [3]: 94 nM
Ki [4]: 0.1 nM

B4: Camptothecin-rvGly-Glut-(Doc)4-Lys-D-Tyr-D-Tyr-c(Cys-Phe-Phe-D-Trp-Lys-Thr-Cys)-NH2 (peptide)
peptide: {Camptothecin-rvGly-Glut-AEEA-AEEA-AEEA-AEEA}-K[dY][dY]CFF[dW]KTC-NH2
modifications: disulfide 4-10; reading uncertain
Ki [2]: 481 nM
Ki [4]: 9.38 nM

B5: Camptothecin-rvGly-Suc-(Doc)4-Aepa-Nle-Gln-Trp-Ala-Val-β-Ala-His-Leu-Nle-NH2 (peptide)
peptide: Camptothecin-[rvGly][Suc][AEEA][AEEA][AEEA][AEEA][Pipz(1-CH2CO,4-CH2CH2NH)][Nle]QWAV[βAla]HL[Nle]-NH2
Ki [1]: 4.57 nM

B6: Camptothecin-rvGly-Suc-(Doc)4-Aepa-Ahx-Gln-Trp-Ala-Val-β-Ala-His-Leu-Nle-NH2 (peptide)
peptide: Camptothecin-[rvGly][Suc][AEEA][AEEA][AEEA][AEEA][Pipz(1-CH2CO,4-CH2CH2NH)][Ahx]QWAV[βAla]HL[Nle]-NH2
Ki [1]: 1.9 nM

B7: Camptothecin-rvGly-Suc-(Doc)4-Aepa-Leu-Gaba-Gln-Trp-Ala-Val-β-Ala-His-Leu-Nle-NH2 (peptide)
peptide: Camptothecin-[rvGly][Suc][AEEA][AEEA][AEEA][AEEA][Pipz(1-CH2CO,4-CH2CH2NH)]L[GABA]QWAV[βAla]HL[Nle]-NH2
Ki [1]: 18.2 nM

B8: Camptothecin-rvGly-Suc-(Doc)4-Aepa-Gaba-Asn-Gln-Trp-Ala-Val-β-Ala-His-Leu-Nle-NH2 (peptide)
peptide: Camptothecin-[rvGly][Suc][AEEA][AEEA][AEEA][AEEA][Pipz(1-CH2CO,4-CH2CH2NH)][GABA]NQWAV[βAla]HL[Nle]-NH2
Ki [1]: 7.65 nM

B9: Camptothecin-rvGly-Suc-(Doc)4-Aepa-Apn-Asn-Gln-Trp-Ala-Val-β-Ala-His-Leu-Nle-NH2 (peptide)
peptide: Camptothecin-[rvGly][Suc][AEEA][AEEA][AEEA][AEEA][Pipz(1-CH2CO,4-CH2CH2NH)][Apn]NQWAV[βAla]HL[Nle]-NH2
modifications: reading uncertain; also: printed as Camptothecin-rvGly-Suc-(Doc)4-Aepa-Apn-Asn-Gln-Trp-Ala-Val-β-Ala-His-Leu-Nle-NH2
Ki [1]: 4.07 nM

B10: Camptothecin-rvGly-Suc-(Doc)4-Lys-D-Ser-D-Tyr-Gln-Trp-Ala-Val-β-Ala-His-Leu-Nle-NH2 (peptide)
peptide: {Camptothecin-rvGly-Suc-AEEA-AEEA-AEEA-AEEA}-K[dS][dY]QWAV[βAla]HL[Nle]-NH2
modifications: reading uncertain; also: printed as Camptothecin-rvGly-Suc-(Doc)4-Lys-D-Ser-D-Tyr-Gln-Trp-Ala-Val-β-Ala-His-Leu-Nle-NH2
notes: Bombesin analog conjugate
Ki [5]: 1.45 nM

B11: Camptothecin-rvGly-Suc-(Doc)4-Arg-D-Ala-D-Tyr-Gln-Trp-Ala-Val-β-Ala-His-Leu-Nle-NH2 (peptide)
peptide: {Camptothecin-rvGly-Suc-AEEA-AEEA-AEEA-AEEA}-R[dA][dY]QWAV[βAla]HL[Nle]-NH2
modifications: reading uncertain; also: printed as Camptothecin-rvGly-Suc-(Doc)4-Arg-D-Ala-D-Tyr-Gln-Trp-Ala-Val-β-Ala-His-Leu-Nle-NH2
notes: Bombesin analog conjugate
Ki [5]: 1.1 nM

B12: Camptothecin-rvGly-Suc-(Doc)4-Aepa-Gaba-D-Ser-D-Tyr-Gln-Trp-Ala-Val-β-Ala-His-Leu-Nle-NH2 (peptide)
peptide: {Camptothecin-rvGly-Suc-AEEA-AEEA-AEEA-AEEA-Pipz(1-CH2CO,4-CH2CH2NH)}-[GABA][dS][dY]QWAV[βAla]HL[Nle]-NH2
modifications: reading uncertain; also: printed as Camptothecin-rvGly-Suc-(Doc)4-Aepa-Gaba-D-Ser-D-Tyr-Gln-Trp-Ala-Val-β-Ala-His-Leu-Nle-NH2
notes: Bombesin analog conjugate
Ki [5]: 4.82 nM
